Assays:
[1] = target: GL3^552–637, N6His- and GST-tagged recombinant protein (Arabidopsis) (UniProt Q9FN69); assay: AlphaScreen or HTRF; ALPHA competition binding, apparent Kd; 100 nM N6His-tagged and 100 nM GST-tagged copies with untagged competitor (R^ACT 0–8 μM, GL3^ACT 0–10 μM); room temperature 2 h; one-site fit
[2] = target: R^525–610, N6His- and GST-tagged recombinant protein (maize); assay: AlphaScreen or HTRF; ALPHA saturation binding, apparent Kd; N6His-tagged and GST-tagged copies, one at 100 nM (R^ACT) or 500 nM (GL3^ACT), the other 0–4 μM (R^ACT) or 0–5 μM (GL3^ACT); Nickel Chelate donor and anti-GST acceptor beads; room temperature 2 h; one-site fit
biological repeat 2 = target: the molecule itself; assay: biological repeat 2
[3] = target: R^525–610 V568S, N6His- and GST-tagged recombinant protein (maize); assay: AlphaScreen or HTRF; ALPHA saturation binding, apparent Kd; N6His-tagged and GST-tagged copies, one at 100 nM (R^ACT) or 500 nM (GL3^ACT), the other 0–4 μM (R^ACT) or 0–5 μM (GL3^ACT); Nickel Chelate donor and anti-GST acceptor beads; room temperature 2 h; one-site fit
[4] = target: T1, R^525–610 A573S, N6His- and GST-tagged recombinant protein (maize); assay: biological repeat 1
T1 chain: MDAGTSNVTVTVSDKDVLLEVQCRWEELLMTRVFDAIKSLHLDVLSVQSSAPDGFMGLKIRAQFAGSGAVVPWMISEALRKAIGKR

[5] = target: T2, R^525–610 L569H, N6His- and GST-tagged recombinant protein (maize); assay: biological repeat 1
T2 chain: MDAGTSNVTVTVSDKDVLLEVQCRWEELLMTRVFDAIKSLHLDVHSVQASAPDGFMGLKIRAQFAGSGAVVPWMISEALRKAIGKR

biological repeat 1 = target: the molecule itself; assay: biological repeat 1
[6] = target: T1, R^525–610 A573S, N6His- and GST-tagged …; assay: biological repeat 2
[7] = target: T2, R^525–610 L569H, N6His- and GST-tagged …; assay: biological repeat 2

## untagged GL3^552–637 (from UniProt Q9FN69 552-637) (domain or fragment)
[1]
  Kd: 1280 nM

B1: R^525–610, N6His- and GST-tagged recombinant protein (domain or fragment)
chain: MDAGTSNVTVTVSDKDVLLEVQCRWEELLMTRVFDAIKSLHLDVLSVQASAPDGFMGLKIRAQFAGSGAVVPWMISEALRKAIGKR
[2]
  Kd: 100 nM
Biological repeat 2
  Kd: 90 nM

B2: R^525–610 V568S, N6His- and GST-tagged recombinant protein (domain or fragment)
chain: MDAGTSNVTVTVSDKDVLLEVQCRWEELLMTRVFDAIKSLHLDSLSVQASAPDGFMGLKIRAQFAGSGAVVPWMISEALRKAIGKR
[3]
  Kd: 1720 nM
[4]
  Kd: 290 nM
[5]
  Kd: 340 nM
Biological repeat 1
  Kd: 1850 nM
[6]
  Kd: 250 nM
[7]
  Kd: 310 nM
